# Reference: patent US20110135634A1, “METHODS OF INHIBITING INFECTION BY DIVERSE SUBTYPES OF DRUG-RESISTANT HIV-1” (priority 2007, published 2011)
# Values joined by “and” are separate entries in the source; they are usually repeats but may differ in a detail not shown here. Equal values may be shown once. Read-outs that look alike come from different tables or passages of the source.
# What was measured:
# [1] = biological target: CCR5 (CC-chemokine receptor 5) (human) (UniProt P51681); assay: cell-based or functional assay
# [2] = system: reporter viruses pseudotyped with HIV-1JR-FL envelope (U87-CD4-CCR5 cells); assay: microbe, parasite or virus in culture; format: cell-based
# [3] = system: HIV-1 Env-mediated fusion (HeLa-EnvJRFL and CEM NKR-CCR5 cells); assay: RET cell-cell fusion assay, combination testing (Part II, Example 1)
# Description: Serial dilutions of small molecules were conducted in DMSO. Subsequent dilutions were conducted in medium to achieve a fmal DMSO concentration in the assay of 0.5%. Peptides and mAbs were diluted in PBS in the absence of DMSO.
# Briefly, fluorescein octadecyl ester (F18; Molecular Probes, Eugene, Oreg.; 5 mg/ml in ethanol), was diluted 1:800 in DMEM labeling medium (DMEM; Invitrogen, Carlsbad, Calif.) with 10% fetal bovine serum (FBS; HyClone, Logan, Utah) and adjusted to an A506 of 0.34±10%. […] Both dyes were further diluted 2-fold by addition to cells in T75-cm^2 flasks. HeLa-EnvJRFL and CEM NKR-CCR5 cells were incubated overnight in F18- and R18-containing culture medium, respectively. The following day, medium from HeLa-EnvJRFL cells was removed and 10 ml of 0.5 mM EDTA was added and incubated at 37° C. for 5 min. EDTA was removed and the flask was returned to the incubator for another 5 min followed by striking of the flask to dislodge cells. […] Suspension CEM NKR-CCR5 cells were added directly to a separate 50-ml conical centrifuge tube. […] Ten μl of each cell type (15,000 cells) were seeded into wells of a 384-well plate. Inhibitor compounds were added immediately thereafter to bring the final well volume to 40 μl, and the plates were incubated for 4 h at 37° C. Compounds were tested individually and in combination at a fixed molar ratio or mass ratio over a range of serial dilutions.
# The “% RET” was calculated according to the following formula after subtraction of background (blank) readings:
# The “% Inhibition” was calculated according to the following formula: […]
# IC50 values were generated for all combinations as described above. Combination Index (CI) and Dose Reduction (DR) values were calculated according to the following formulas:
# Combinations with CI<1 are determined to be synergistic, whereas combinations with CI>1 are determined to be antagonistic. […]
# In this assay, effector cells are labeled with the F18 dye and target cells with the R18 dye. […] Drug susceptibility is measured by adding serial concentrations of drugs to target cells prior to addition of effector cells.
# [4] = system: reporter viruses pseudotyped with HIV-1SF162 envelope (U87-CD4-CCR5 cells); assay: HIV-1 pseudovirus assay, SF162 envelope; format: cell-based; settings: Human immunodeficiency virus 1, U87/CD4/CCR5
# Description: A self-inactivating (SIN) vector was derived from the pNL4-3ΔEnv-luciferase vector (Dragic et al. 1996) by deleting 507 basepairs in the U3 region of the 3′ long terminal repeat (LTR) so as to remove the TATA box and transcription factor binding sites. The human cytomegalovirus promoter was inserted upstream of the luciferase (luc) gene to enable expression of luciferase following integration.
# Reporter viruses pseudotyped with HIV-1JR-FL or HIV-1SF162 envelopes were generated by cotransfection of 293T cells with the SIN vector and the appropriate pcDNA env-expressing vector as previously described (Dragic et al. 1996). […] Cultures were incubated for 72 h at 37° C. in DMEM containing 10% fetal bovine serum, […] puromycin, 0.3 mg/mL geneticin, antibiotics, and 0.5% DMSO. Luciferase activity (relative light units or RLU) was measured using. BrightGlo reagent (Promega, Madison, Wis.) according to the manufacturer's instructions.
# Experimental design and data analysis were based on the combination index (CI) method (Chou et al. 1991; Chou et al. 1984). […] The mutually exclusive CI formula was used for combinations of CCR5 inhibitors, while the mutually non-exclusive formula was utilized for combinations of inhibitors to distinct targets (Chou et al. 1991). Each test was conducted 4-12 times. Synergy, additivity and antagonism are indicated by CI<1, CI=1 and CI>1, respectively.
# HIV-1 = settings: dose-dependent, treatment period of 10-14 days; cited from earlier work
# [5] = in vivo; cited from earlier work
# [6] = single administration of TAK-652 solution, healthy male volunteers; cited from earlier work
# [7] = biological target: CCR5 (CC-chemokine receptor 5) (human) (UniProt P51681); assay: cell-based or functional assay; remark: listed apart in the source
# [8] = biological target: CCR5 (CC-chemokine receptor 5) (human) (UniProt P51681); assay: flow cytometry competition; unlabeled PRO 140 pre-incubated with CEM.NKR-CCR5 cells, then 5 nM PRO 140-PE as competitor; MFI read-out
# [9] = biological target: CCR5 (CC-chemokine receptor 5) (human) (UniProt P51681); assay: displacement of labelled ligand; PRO 140 pre-incubated with CEM.NKR-CCR5 cells, then 2 nM 3H-UK-427,857 (small molecule) as competitor; scintillation counting
# [10] = biological target: CCR5 (CC-chemokine receptor 5) (human) (UniProt P51681); assay: flow cytometry competition; unlabeled PRO 140 pre-incubated with CEM.NKR-CCR5 cells, then 5 nM PRO 140-PE as competitor; percent cells gated read-out
molecule,measurement,setting,value
anti-CCR5 mAb 2D7 (antibody),"IC50, HIV-1 reporter virus pseudotyped with JRFL envelope, U87-CD4-CCR5 cells",[1],8.8 nM
same,"IC50, HIV-1 reporter virus pseudotyped with SF162 envelope, U87-CD4-CCR5 cells",[1],2.2 nM
same,"IC90, HIV-1 reporter virus pseudotyped with JRFL envelope, U87-CD4-CCR5 cells",[1],> 200 nM
same,"IC90, HIV-1 reporter virus pseudotyped with SF162 envelope, U87-CD4-CCR5 cells",[1],74 nM
"Cc1nnc(C(C)C)n1C1CC2CCC(C1)N2CC[C@H](NC(=O)C1CCC(F)(F)CC1)c1ccccc1 (stereo partly shown) [UK-427,857, reference compound]",IC90,"[2]; HIV-1 envelope JRFL, 1st inhibitor alone",46 nM
same,IC50,"[2]; Human immunodeficiency virus 1, U87/CD4/CCR5",7.4 nM
same,Mean Dose Reduction (2D7),"[3]; 2D7 in combination with the labelled inhibitor, 1:1 molar ratio",2.45 ± 0.12
same,Mean CI,"[3]; PRO 140 in combination with the labelled inhibitor, 1:1 molar ratio, Combination Index at IC50",0.59 ± 0.04
same,Mean Dose Reduction (Cpd in combination),"[3]; labelled inhibitor in combination with 2D7, 1:1 molar ratio",5.73 ± 0.54
same,IC50,[4],0.87 nM
same,IC90,[4],13 nM
CCCCN1C(=O)[C@@H]([C@H](O)C2CCCCC2)NC(=O)C12CCN(Cc1ccc(Oc3ccc(C(=O)O)cc3)cc1)CC2 [GW873140],mean reductions in HIV-1 RNA levels,HIV-1,~1 log10
CCCCOCCOc1ccc(-c2ccc3c(c2)/C=C(/C(=O)Nc2ccc([S@@+]([O-])Cc4cncn4CCC)cc2)CCCN3CC(C)C)cc1.CS(=O)(=O)O [TAK-652],oral bioavailability,[5],orally bioavailable
same,safety and tolerability,[6],safe and well tolerated
"PRO 140, humanized IgG4,κ anti-CCR5 monoclonal antibody (antibody, INN chains, looked up, V domains shown) VH: EVQLVESGGGLVKPGGSLRLSCAASGYTFSNYWIGWVRQAPGKGLEWIGDIYPGGNYIRNNEKFKDKTTLSADTSKNTAYLQMNSLKTEDTAVYYCGSSFGSNYVFAWFTYWGQGTLVTVSS VL: DIVMTQSPLSLPVTPGEPASISCRSSQRLLSSYGHTYLHWYLQKPGQSPQLLIYEVSNRFSGVPDRFSGSGSGTDFTLKISRVEAEDVGVYYCSQSTHVPLTFGQGTKVEIK","IC50, HIV-1 reporter virus pseudotyped with JRFL envelope, U87-CD4-CCR5 cells",[7],2.2 nM
same,"IC50, HIV-1 reporter virus pseudotyped with SF162 envelope, U87-CD4-CCR5 cells",[7],1.3 nM
same,"IC50, PhenoSense HIV Entry assay, U87-CD4/CCR5 cells, virus DUAL",[7],0.347 µg/mL
same,"IC50, PhenoSense HIV Entry assay, U87-CD4/CCR5 cells, virus JRCSF",[7],0.574 µg/mL
same,"IC50, PhenoSense HIV Entry assay, U87-CD4/CCR5 cells, virus Panel 1 (subtype A)",[7],0.199 µg/mL
same,"IC50, PhenoSense HIV Entry assay, U87-CD4/CCR5 cells, virus Panel 2 (subtype A)",[7],0.305 µg/mL
same,"IC50, PhenoSense HIV Entry assay, U87-CD4/CCR5 cells, virus Panel 3 (subtype A)",[7],0.414 µg/mL
same,"IC50, PhenoSense HIV Entry assay, U87-CD4/CCR5 cells, virus Panel 4 (subtype A)",[7],0.508 µg/mL
same,"IC50, PhenoSense HIV Entry assay, U87-CD4/CCR5 cells, virus Panel 5 (subtype C)",[7],0.356 µg/mL
same,"IC50, PhenoSense HIV Entry assay, U87-CD4/CCR5 cells, virus Panel 6 (subtype C)",[7],0.318 µg/mL
same,"IC50, PhenoSense HIV Entry assay, U87-CD4/CCR5 cells, virus Panel 7 (subtype C)",[7],0.0955 µg/mL
same,"IC50, PhenoSense HIV Entry assay, U87-CD4/CCR5 cells, virus Panel 8 (subtype C)",[7],0.527 µg/mL
same,"IC50, PhenoSense HIV Entry assay, U87-CD4/CCR5 cells, virus Panel 9 (subtype D)",[7],0.679 µg/mL
same,"IC50, PhenoSense HIV Entry assay, U87-CD4/CCR5 cells, virus Panel 10 (subtype D)",[7],0.59 µg/mL
same,"IC50, PhenoSense HIV Entry assay, U87-CD4/CCR5 cells, virus Panel 11 (subtype D)",[7],0.365 µg/mL
same,"IC50, PhenoSense HIV Entry assay, U87-CD4/CCR5 cells, virus Panel 12 (subtype D)",[7],0.238 µg/mL
same,"IC50, PhenoSense HIV Entry assay, U87-CD4/CCR5 cells, virus Panel 13 (subtype F)",[7],0.788 µg/mL
same,"IC50, PhenoSense HIV Entry assay, U87-CD4/CCR5 cells, virus Panel 14 (subtype F)",[7],0.657 µg/mL
same,"IC50, PhenoSense HIV Entry assay, U87-CD4/CCR5 cells, virus Panel 15 (subtype F)",[7],0.332 µg/mL
same,"IC50, PhenoSense HIV Entry assay, U87-CD4/CCR5 cells, virus Panel 16 (subtype F)",[7],0.342 µg/mL
same,"IC50, PhenoSense HIV Entry assay, U87-CD4/CCR5 cells, virus Panel 17 (subtype G)",[7],0.26 µg/mL
same,"IC50, PhenoSense HIV Entry assay, U87-CD4/CCR5 cells, virus Panel 18 (subtype G)",[7],1.43 µg/mL
same,"IC50, PhenoSense HIV Entry assay, U87-CD4/CCR5 cells, virus Panel 19 (subtype G)",[7],0.384 µg/mL
same,"IC50, PhenoSense HIV Entry assay, U87-CD4/CCR5 cells, virus Panel 20 (subtype G)",[7],0.432 µg/mL
same,"IC50, PhenoSense HIV Entry assay, U87-CD4/CCR5 cells, virus Panel 21 (subtype J)",[7],0.525 µg/mL
same,"IC50, PhenoSense HIV Entry assay, U87-CD4/CCR5 cells, virus Panel 22 (subtype J)",[7],0.436 µg/mL
same,"IC50, PhenoSense HIV Entry assay, U87-CD4/CCR5 cells, virus Panel 23 (subtype J)",[7],0.269 µg/mL
same,"IC50, PhenoSense HIV Entry assay, U87-CD4/CCR5 cells, virus Panel 24 (subtype B)",[7],0.547 µg/mL
same,"IC50, PhenoSense HIV Entry assay, U87-CD4/CCR5 cells, virus Panel 25 (subtype B)",[7],0.519 µg/mL
same,"IC50, PhenoSense HIV Entry assay, U87-CD4/CCR5 cells, virus Panel 26 (subtype B)",[7],0.442 µg/mL
same,"IC50, PhenoSense HIV Entry assay, U87-CD4/CCR5 cells, virus Panel 27 (subtype B)",[7],0.575 µg/mL
same,"IC50, PhenoSense HIV Entry assay, U87-CD4/CCR5 cells, virus Panel 31 JRCSF-N43D",[7],0.67 µg/mL
same,"IC90, HIV-1 reporter virus pseudotyped with JRFL envelope, U87-CD4-CCR5 cells",[7],28 nM
same,"IC90, HIV-1 reporter virus pseudotyped with SF162 envelope, U87-CD4-CCR5 cells",[7],20 nM
same,"IC90, PhenoSense HIV Entry assay, U87-CD4/CCR5 cells, virus DUAL",[7],1.56 µg/mL
same,"IC90, PhenoSense HIV Entry assay, U87-CD4/CCR5 cells, virus JRCSF",[7],18.3 µg/mL
same,"IC90, PhenoSense HIV Entry assay, U87-CD4/CCR5 cells, virus Panel 1 (subtype A)",[7],1.69 µg/mL
same,"IC90, PhenoSense HIV Entry assay, U87-CD4/CCR5 cells, virus Panel 2 (subtype A)",[7],4.51 µg/mL
same,"IC90, PhenoSense HIV Entry assay, U87-CD4/CCR5 cells, virus Panel 3 (subtype A)",[7],3.38 µg/mL
same,"IC90, PhenoSense HIV Entry assay, U87-CD4/CCR5 cells, virus Panel 4 (subtype A)",[7],3.45 µg/mL
same,"IC90, PhenoSense HIV Entry assay, U87-CD4/CCR5 cells, virus Panel 5 (subtype C)",[7],6.52 µg/mL
same,"IC90, PhenoSense HIV Entry assay, U87-CD4/CCR5 cells, virus Panel 6 (subtype C)",[7],3.37 µg/mL
same,"IC90, PhenoSense HIV Entry assay, U87-CD4/CCR5 cells, virus Panel 7 (subtype C)",[7],0.447 µg/mL
same,"IC90, PhenoSense HIV Entry assay, U87-CD4/CCR5 cells, virus Panel 8 (subtype C)",[7],7.25 µg/mL
same,"IC90, PhenoSense HIV Entry assay, U87-CD4/CCR5 cells, virus Panel 9 (subtype D)",[7],15.3 µg/mL
same,"IC90, PhenoSense HIV Entry assay, U87-CD4/CCR5 cells, virus Panel 10 (subtype D)",[7],5.65 µg/mL
same,"IC90, PhenoSense HIV Entry assay, U87-CD4/CCR5 cells, virus Panel 11 (subtype D)",[7],4.33 µg/mL
same,"IC90, PhenoSense HIV Entry assay, U87-CD4/CCR5 cells, virus Panel 12 (subtype D)",[7],2.08 µg/mL
same,"IC90, PhenoSense HIV Entry assay, U87-CD4/CCR5 cells, virus Panel 13 (subtype F)",[7],16.7 µg/mL
same,"IC90, PhenoSense HIV Entry assay, U87-CD4/CCR5 cells, virus Panel 14 (subtype F)",[7],21.9 µg/mL
same,"IC90, PhenoSense HIV Entry assay, U87-CD4/CCR5 cells, virus Panel 15 (subtype F)",[7],5.88 µg/mL
same,"IC90, PhenoSense HIV Entry assay, U87-CD4/CCR5 cells, virus Panel 16 (subtype F)",[7],14 µg/mL
same,"IC90, PhenoSense HIV Entry assay, U87-CD4/CCR5 cells, virus Panel 17 (subtype G)",[7],2.41 µg/mL
same,"IC90, PhenoSense HIV Entry assay, U87-CD4/CCR5 cells, virus Panel 18 (subtype G)",[7],50.7 µg/mL
same,"IC90, PhenoSense HIV Entry assay, U87-CD4/CCR5 cells, virus Panel 19 (subtype G)",[7],3.51 µg/mL
same,"IC90, PhenoSense HIV Entry assay, U87-CD4/CCR5 cells, virus Panel 20 (subtype G)",[7],5.65 µg/mL
same,"IC90, PhenoSense HIV Entry assay, U87-CD4/CCR5 cells, virus Panel 21 (subtype J)",[7],6.06 µg/mL
same,"IC90, PhenoSense HIV Entry assay, U87-CD4/CCR5 cells, virus Panel 22 (subtype J)",[7],9.24 µg/mL
same,"IC90, PhenoSense HIV Entry assay, U87-CD4/CCR5 cells, virus Panel 23 (subtype J)",[7],3.3 µg/mL
same,"IC90, PhenoSense HIV Entry assay, U87-CD4/CCR5 cells, virus Panel 24 (subtype B)",[7],10.1 µg/mL
same,"IC90, PhenoSense HIV Entry assay, U87-CD4/CCR5 cells, virus Panel 25 (subtype B)",[7],12.2 µg/mL
same,"IC90, PhenoSense HIV Entry assay, U87-CD4/CCR5 cells, virus Panel 26 (subtype B)",[7],8.91 µg/mL
same,"IC90, PhenoSense HIV Entry assay, U87-CD4/CCR5 cells, virus Panel 27 (subtype B)",[7],6.5 µg/mL
same,"IC90, PhenoSense HIV Entry assay, U87-CD4/CCR5 cells, virus Panel 31 JRCSF-N43D",[7],16.1 µg/mL
same,"IC90, neutralization of primary R5 HIV-1 isolates, whole virus replication assay",[7],3 µg/mL and 4 µg/mL
same,EC50,[8],2.5 nM
same,EC50,[9],14 nM
same,EC90,[10],17 nM
